According to patent US20250213666A1:

Target: Spike protein on SARS-CoV-2 pseudovirus expressing luciferase (COVID-19 Pseudovirus Neutralizing Antibody Assay, Abnova) (SARS-CoV-2) (UniProt P0DTC2)
Assay: cell-based or functional assay

Intimin-Ty1 nanobody (pIntimin-Ty1), surface displayed on E. coli Nissle 1917 or on its OMVs (VHH)
Pseudovirus-ACE2 receptor inhibition, OMVs at 22 µg/mL: 30 to 32%
